Source: patent US20220010021A1 (Sanofi, published 2022)
Where a chain is given by its changes, count along the chain named.

B1: 16H7 variant, light chain N25H (antibody, human IgG4 S228P, lambda, V domains shown)
VH: not shown
VL: SYVLTQPPSVSVAPGQTARITCGGHNIGSESVHWYQQKPGQAPVLVVYDDSDRPSGIPERFSGSNSGNTATLTISRVEAGDEADYYCQVWDGNSDHVVFGGGTKLTVLG
notes: IgG4 backbone
B2: 16H7 variant, light chain N26V (antibody, human IgG4 S228P, lambda, V domains shown)
VH: not shown
VL: B1 VL with H25N, N26V
notes: IgG4 backbone
B3: 16H7 variant, light chain N26I (antibody, IgG4, V domains shown)
VH: not shown
VL: B1 VL with H25N, N26I
notes: IgG4 backbone; copies: 2 + 2
B4: 16H7 variant, light chain P54I (antibody, human IgG4 S228P, lambda, V domains shown)
VH: not shown
VL: B1 VL with H25N, P54I
notes: IgG4 backbone
B5: 16H7 variant, light chain N25W (antibody, human IgG4 S228P, lambda, V domains shown)
VH: not shown
VL: B1 VL with H25W
notes: IgG4 backbone
B6: 16H7 variant, light chain N26R (antibody, human IgG4 S228P, lambda, V domains shown)
VH: not shown
VL: B1 VL with H25N, N26R
notes: IgG4 backbone
B7: 16H7 variant, light chain N25I (antibody, human IgG4 S228P, lambda, V domains shown)
VH: not shown
VL: B1 VL with H25I
notes: IgG4 backbone
B8: 16H7 variant, light chain N26H (antibody, human IgG4 S228P, lambda, V domains shown)
VH: not shown
VL: B1 VL with H25N, N26H
notes: IgG4 backbone
B9: 16H7 variant, light chain N26S (antibody, IgG4, V domains shown)
VH: not shown
VL: B1 VL with H25N, N26S
notes: IgG4 backbone; copies: 2 + 2
B10: 16H7 variant, light chain N25P (antibody, human IgG4 S228P, lambda, V domains shown)
VH: not shown
VL: B1 VL with H25P
notes: IgG4 backbone
B11: 16H7 variant, light chain N26A (antibody, human IgG4 S228P, lambda, V domains shown)
VH: not shown
VL: B1 VL with H25N, N26A
notes: IgG4 backbone
B12: 16H7 variant, light chain N25Y (antibody, human IgG4 S228P, lambda, V domains shown)
VH: not shown
VL: B1 VL with H25Y
notes: IgG4 backbone
B13: 16H7 variant, light chain P54G (antibody, human IgG4 S228P, lambda, V domains shown)
VH: not shown
VL: B1 VL with H25N, P54G
notes: IgG4 backbone
B14: 16H7 variant, light chain N26D (antibody, IgG4, V domains shown)
VH: not shown
VL: B1 VL with H25N, N26D
notes: IgG4 backbone; copies: 2 + 2
B15: 16H7 variant, light chain N26K (antibody, human IgG4 S228P, lambda, V domains shown)
VH: not shown
VL: B1 VL with H25N, N26K
notes: IgG4 backbone
B16: 16H7 variant, light chain N25L (antibody, human IgG4 S228P, lambda, V domains shown)
VH: not shown
VL: B1 VL with H25L
notes: IgG4 backbone
B17: 16H7 variant, light chain P54H (antibody, human IgG4 S228P, lambda, V domains shown)
VH: not shown
VL: B1 VL with H25N, P54H
notes: IgG4 backbone
B18: 16H7 variant, light chain N26G (antibody, human IgG4 S228P, lambda, V domains shown)
VH: not shown
VL: B1 VL with H25N, N26G
notes: IgG4 backbone
B19: 16H7 variant, light chain P54C (antibody, human IgG4 S228P, lambda, V domains shown)
VH: not shown
VL: B1 VL with H25N, P54C
notes: IgG4 backbone
B20: 16H7 variant, light chain N25T (antibody, human IgG4 S228P, lambda, V domains shown)
VH: not shown
VL: B1 VL with H25T
notes: IgG4 backbone
B21: 16H7 variant, light chain N26Q (antibody, IgG4, V domains shown)
VH: not shown
VL: B1 VL with H25N, N26Q
notes: IgG4 backbone; copies: 2 + 2
B22: 16H7 variant, light chain P54F (antibody, human IgG4 S228P, lambda, V domains shown)
VH: not shown
VL: B1 VL with H25N, P54F
notes: IgG4 backbone
B23: 16H7 variant, light chain N26L (antibody, human IgG4 S228P, lambda, V domains shown)
VH: not shown
VL: B1 VL with H25N, N26L
notes: IgG4 backbone
B24: 16H7 variant, light chain N26M (antibody, human IgG4 S228P, lambda, V domains shown)
VH: not shown
VL: B1 VL with H25N, N26M
notes: IgG4 backbone
B25: 16H7 variant, light chain N26C (antibody, IgG4, V domains shown)
VH: not shown
VL: B1 VL with H25N, N26C
notes: IgG4 backbone; copies: 2 + 2
B26: 16H7 variant, light chain P54K (antibody, human IgG4 S228P, lambda, V domains shown)
VH: not shown
VL: B1 VL with H25N, P54K
notes: IgG4 backbone
B27: 16H7 variant, light chain N26F (antibody, human IgG4 S228P, lambda, V domains shown)
VH: not shown
VL: B1 VL with H25N, N26F
notes: IgG4 backbone
B28: 16H7 variant, light chain N26E (antibody, human IgG4 S228P, lambda, V domains shown)
VH: not shown
VL: B1 VL with H25N, N26E
notes: IgG4 backbone
B29: 16H7 variant, light chain N25K (antibody, human IgG4 S228P, lambda, V domains shown)
VH: not shown
VL: B1 VL with H25K
notes: IgG4 backbone
B30: 16H7 variant, light chain N25M (antibody, human IgG4 S228P, lambda, V domains shown)
VH: not shown
VL: B1 VL with H25M
notes: IgG4 backbone
B31: 16H7 variant, light chain N26P (antibody, human IgG4 S228P, lambda, V domains shown)
VH: not shown
VL: B1 VL with H25N, N26P
notes: IgG4 backbone
B32: 16H7 variant, light chain N25Q (antibody, human IgG4 S228P, lambda, V domains shown)
VH: not shown
VL: B1 VL with H25Q
notes: IgG4 backbone
B33: 16H7 variant, light chain N26Y (antibody, human IgG4 S228P, lambda, V domains shown)
VH: not shown
VL: B1 VL with H25N, N26Y
notes: IgG4 backbone
B34: 16H7 variant, light chain P54L (antibody, human IgG4 S228P, lambda, V domains shown)
VH: not shown
VL: B1 VL with H25N, P54L
notes: IgG4 backbone
B35: 16H7 variant, light chain N25V (antibody, human IgG4 S228P, lambda, V domains shown)
VH: not shown
VL: B1 VL with H25V
notes: IgG4 backbone
B36: 16H7 variant, light chain P54D (antibody, human IgG4 S228P, lambda, V domains shown)
VH: not shown
VL: B1 VL with H25N, P54D
notes: IgG4 backbone
B37: 16H7 variant, light chain N25R (antibody, human IgG4 S228P, lambda, V domains shown)
VH: not shown
VL: B1 VL with H25R
notes: IgG4 backbone
B38: 16H7 variant, light chain N26W (antibody, IgG4, V domains shown)
VH: not shown
VL: B1 VL with H25N, N26W
notes: IgG4 backbone; copies: 2 + 2
B39: 16H7 variant, light chain N25S (antibody, human IgG4 S228P, lambda, V domains shown)
VH: not shown
VL: B1 VL with H25S
notes: IgG4 backbone

Target: human FGFR1c/KLB cell surface receptor complex on iLite FGF21 reporter cells (human, UniProt P11362 22-822; Q86Z14 1-1044); for Mean E max (%): reference of the scale not given here
Experiment: cell-based or functional assay

Sequence of human FGFR1c/KLB cell surface receptor complex on iLite FGF21 reporter cells (P11362 22-822, chain 1 of 2): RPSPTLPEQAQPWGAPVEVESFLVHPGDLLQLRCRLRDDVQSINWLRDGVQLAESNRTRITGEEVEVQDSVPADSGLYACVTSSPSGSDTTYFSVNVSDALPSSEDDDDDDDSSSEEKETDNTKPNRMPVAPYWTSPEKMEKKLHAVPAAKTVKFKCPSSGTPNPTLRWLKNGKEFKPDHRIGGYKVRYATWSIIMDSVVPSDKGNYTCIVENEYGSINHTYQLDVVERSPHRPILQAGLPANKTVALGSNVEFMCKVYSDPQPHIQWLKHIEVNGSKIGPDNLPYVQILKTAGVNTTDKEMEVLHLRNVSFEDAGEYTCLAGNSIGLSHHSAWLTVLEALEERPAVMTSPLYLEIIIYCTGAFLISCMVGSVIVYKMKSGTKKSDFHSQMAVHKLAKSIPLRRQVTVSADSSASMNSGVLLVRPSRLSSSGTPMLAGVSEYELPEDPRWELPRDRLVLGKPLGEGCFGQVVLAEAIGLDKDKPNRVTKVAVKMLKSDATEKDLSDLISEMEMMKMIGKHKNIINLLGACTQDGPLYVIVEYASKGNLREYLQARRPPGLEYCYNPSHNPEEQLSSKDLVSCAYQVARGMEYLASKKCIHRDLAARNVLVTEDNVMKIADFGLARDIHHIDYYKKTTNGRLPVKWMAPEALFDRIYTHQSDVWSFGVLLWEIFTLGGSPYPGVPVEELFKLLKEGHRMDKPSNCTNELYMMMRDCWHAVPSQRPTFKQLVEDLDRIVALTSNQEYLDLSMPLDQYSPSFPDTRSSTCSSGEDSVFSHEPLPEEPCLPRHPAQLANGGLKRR
Sequence of human FGFR1c/KLB cell surface receptor complex on iLite FGF21 reporter cells (Q86Z14 whole entry, chain 2 of 2): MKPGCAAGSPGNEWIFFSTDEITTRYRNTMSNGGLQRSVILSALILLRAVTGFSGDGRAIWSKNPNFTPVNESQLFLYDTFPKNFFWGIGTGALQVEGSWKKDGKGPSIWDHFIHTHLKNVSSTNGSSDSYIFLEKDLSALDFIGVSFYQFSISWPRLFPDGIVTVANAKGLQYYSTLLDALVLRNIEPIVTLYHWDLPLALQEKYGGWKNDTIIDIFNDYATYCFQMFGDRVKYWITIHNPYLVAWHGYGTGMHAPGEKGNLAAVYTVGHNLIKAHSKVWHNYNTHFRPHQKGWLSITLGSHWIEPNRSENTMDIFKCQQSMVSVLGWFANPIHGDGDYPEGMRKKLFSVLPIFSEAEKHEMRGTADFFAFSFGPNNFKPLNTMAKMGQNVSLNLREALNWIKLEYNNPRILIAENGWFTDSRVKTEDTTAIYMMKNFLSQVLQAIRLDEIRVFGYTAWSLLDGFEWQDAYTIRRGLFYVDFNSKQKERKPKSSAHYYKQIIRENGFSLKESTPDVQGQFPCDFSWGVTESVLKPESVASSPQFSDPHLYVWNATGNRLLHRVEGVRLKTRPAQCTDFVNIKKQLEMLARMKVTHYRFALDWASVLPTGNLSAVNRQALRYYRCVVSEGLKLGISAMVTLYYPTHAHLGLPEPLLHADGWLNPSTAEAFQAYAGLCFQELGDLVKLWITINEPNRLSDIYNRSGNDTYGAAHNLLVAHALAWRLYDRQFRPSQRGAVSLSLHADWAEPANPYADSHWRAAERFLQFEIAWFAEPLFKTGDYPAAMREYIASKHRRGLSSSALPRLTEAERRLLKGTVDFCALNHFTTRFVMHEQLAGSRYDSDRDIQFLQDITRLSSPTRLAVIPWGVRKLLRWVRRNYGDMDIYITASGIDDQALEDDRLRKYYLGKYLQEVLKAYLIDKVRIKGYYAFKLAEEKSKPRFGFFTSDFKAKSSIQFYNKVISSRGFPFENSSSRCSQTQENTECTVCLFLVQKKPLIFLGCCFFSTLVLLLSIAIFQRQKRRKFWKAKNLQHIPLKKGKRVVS

Row | Binder | Mean E max (%) | Mean EC50 [nM]
1 | B1 | 106 | 0.137
2 | B2 | 106 | 0.118
3 | B3 | 110 | 0.113
4 | B4 | 112 | 0.115
5 | B5 | 99 | 0.099
6 | B6 | 110 | 0.205
7 | B7 | 104 | 0.122
8 | B8 | 112 | 0.138
9 | B9 | 101 | 0.118
10 | B10 | 106 | 0.132
11 | B11 | 98 | 0.106
12 | B12 | 104 | 0.099
13 | B13 | 114 | 0.141
14 | B14 | 101 | 0.123
15 | B15 | 104 | 0.143
16 | B16 | 109 | 0.134
17 | B17 | 100 | 0.111
18 | B18 | 94 | 0.097
19 | B19 | 100 | 0.116
20 | B20 | 111 | 0.117

Row | Binder | Mean E max (%) | Mean EC50 [nM]
21 | B21 | 109 | 0.119
22 | B22 | 105 | 0.143
23 | B23 | 103 | 0.131
24 | B24 | 111 | 0.153
25 | B25 | 103 | 0.146
26 | B26 | 100 | 0.131
27 | B27 | 95 | 0.158
28 | B28 | 106 | 0.106
29 | B29 | 110 | 0.182
30 | B30 | 102 | 0.131
31 | B31 | 100 | 0.099
32 | B32 | 102 | 0.096
33 | B33 | 110 | 0.124
34 | B34 | 108 | 0.133
35 | B35 | 106 | 0.121
36 | B36 | 96 | 0.115
37 | B37 | 104 | 0.178
38 | B38 | 105 | 0.129
39 | B39 | 98 | 0.131

Target: T1, human beta-Klotho (KLB) (human, UniProt Q86Z14 53-997)
T1 construct: also called human KLB
T1 sequence (looked up): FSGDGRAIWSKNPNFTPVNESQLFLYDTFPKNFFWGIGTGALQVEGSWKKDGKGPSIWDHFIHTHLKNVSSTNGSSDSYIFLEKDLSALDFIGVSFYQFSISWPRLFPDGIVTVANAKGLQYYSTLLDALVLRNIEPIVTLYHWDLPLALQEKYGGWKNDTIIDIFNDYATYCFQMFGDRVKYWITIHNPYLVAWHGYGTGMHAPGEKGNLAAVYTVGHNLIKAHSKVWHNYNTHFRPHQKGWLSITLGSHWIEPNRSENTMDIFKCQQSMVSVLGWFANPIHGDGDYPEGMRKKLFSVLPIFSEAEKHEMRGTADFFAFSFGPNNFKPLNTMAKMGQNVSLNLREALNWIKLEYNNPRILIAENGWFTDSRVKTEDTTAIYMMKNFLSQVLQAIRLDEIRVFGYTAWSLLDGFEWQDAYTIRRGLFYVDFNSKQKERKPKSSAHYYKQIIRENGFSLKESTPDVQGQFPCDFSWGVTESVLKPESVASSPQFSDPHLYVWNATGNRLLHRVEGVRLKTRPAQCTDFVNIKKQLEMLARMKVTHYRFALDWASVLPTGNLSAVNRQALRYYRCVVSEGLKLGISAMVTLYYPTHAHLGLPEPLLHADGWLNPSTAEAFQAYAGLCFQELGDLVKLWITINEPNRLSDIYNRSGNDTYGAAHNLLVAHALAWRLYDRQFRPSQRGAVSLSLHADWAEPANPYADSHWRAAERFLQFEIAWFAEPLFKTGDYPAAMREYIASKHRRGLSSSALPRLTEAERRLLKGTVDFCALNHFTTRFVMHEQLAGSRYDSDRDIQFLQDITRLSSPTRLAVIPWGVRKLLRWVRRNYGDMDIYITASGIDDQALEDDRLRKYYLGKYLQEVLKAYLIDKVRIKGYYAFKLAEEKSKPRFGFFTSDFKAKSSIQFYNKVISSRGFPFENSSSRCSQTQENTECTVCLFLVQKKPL
Experiment: BLI off-rate screen (Octet), Ab captured via Fc;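 note: antibody supernatants applied at 25 µg/mL, dissociation monitored over 1800 s in D-PBS with 0.1% BSA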

Row | Binder | koff [s⁻¹]
40 | B1 | 3e-05
41 | B2 | 3.5e-05
42 | B3 | 6.3e-05
43 | B4 | 3.5e-05
44 | B5 | 1e-07
45 | B6 | 2.5e-05
46 | B7 | 2.2e-05
47 | B8 | 3.5e-05
48 | B9 | 1e-07
49 | B10 | 1.2e-05
50 | B11 | 4.6e-06
51 | B12 | 3.1e-05
52 | B13 | 5.1e-05
53 | B14 | 5.6e-05
54 | B15 | 1e-07
55 | B16 | 1.2e-05
56 | B17 | 0.00014
57 | B18 | 3.7e-05
58 | B19 | 0.00012
59 | B20 | 2.3e-05

Row | Binder | koff [s⁻¹]
60 | B21 | 1e-07
61 | B22 | 0.00012
62 | B23 | 4.4e-05
63 | B24 | 2.2e-05
64 | B25 | 1e-07
65 | B26 | 0.00016
66 | B27 | 5.4e-05
67 | B28 | 7.2e-05
68 | B29 | 3.3e-05
69 | B30 | 3.1e-06
70 | B31 | 5.1e-05
71 | B32 | 1e-07
72 | B33 | 3.7e-05
73 | B34 | 9.6e-05
74 | B35 | 3.2e-05
75 | B36 | 0.00028
76 | B37 | 4.1e-05
77 | B38 | 6.7e-05
78 | B39 | 4.4e-05
